{"source": "patent US20230211003A1", "about": "“CONJUGATE COMPOUNDS FOR PREVENTING AND/OR TREATING HBV AND/OR HDV INFECTIONS, LIVER DISEASES ANDFOR TARGETING NTCP” (priority 2019, published 2023)", "key": {"[1]": {"system": "HDV", "test": "microbe, parasite or virus in culture", "format": "cell-based, hepatitis D virus (HDV)", "text": "FIG. 3 HBV/HDV infection assay.\nTested were conjugate compounds comprising a truncated variant of Myrcludex B (amino acids 2-21) conjugated with bile acids cholic acid (CA) and ursodeoxy cholic acid (UDCA). They were compared with a control peptide not containing a bile acid moiety, namely HBVpreS/(-11)-21^myr (Genotype B) and the two bile acids CA and UDCA alone.\nFIG. 4 HBV/HDV infection assay.\nTested were conjugate compounds comprising a truncated variant of Myrcludex B (amino acids 2-21) conjugated with cholic acid (CA) and a cyclic peptide (also comprising amino acids 2-21) conjugated with ursodeoxy cholic acid (UDCA). They were compared with a control peptide not containing a bile acid moiety, namely HBVpreS/2-21^myr (Genotype B).\nFIG. 5 HBV/HDV infection assay of compounds conjugated with bile acid monomers and dimers.\nTested were three compounds: two conjugated with ursodeoxy cholic acid (UDCA) and one with a dimer of ursodeoxy cholic acid (UDCA)2, wherein two comprise amino acids 2-21 of Myrcludex B in a linear form and one as cyclic peptide.\nFIG. 7 Infection inhibition of bile acid conjugates with linear peptide sequences Reduction of HDV infection by various bile acid conjugates, control peptides, ursodeoxycholic acid and cholic acid in Huh7-hNTCP cells. The cells were pretreated with the substances for 30 minutes and then co-incubated with the substances and HDV overnight. An in-cell ELISA was carried out five days after infection (n=3).\nReduction of HDV infection by various bile acid conjugates and control peptides in Huh7-hNTCP cells. The cells were pretreated with the substances for 30 minutes and then co-incubated with the substances and HDV overnight. An in-cell ELISA was carried out five days after infection (n=3).\nReduction of HDV infection by a bile acid dimer peptide conjugate bile acid conjugates as compared to the monomeric bile acid conjugates and the control peptides in Huh7-hNTCP cells. The cells were pretreated with the substances for 30 minutes and then coincubated with the substances and HDV overnight. An in-cell ELISA was carried out five days after infection (n=3).\nExample 3 HDAg In-Cell ELISA (Huh7-hNTCP\n1st Antibody Mouse or rabbit anti HDAg (FD3A7) 1:3000\n2nd Antibody: Goat-anti-mouse or goat-anti-rabbit peroxidase conjugated 1:5000\nGrow and infect cells in white 96-well plates.\n1) Fix cells with 50 μl 4% PFA at RT for 30 min\n5) Incubate with 100 μl primary antibody (1:3000) diluted in blocking buffer at RT with shaking for 1 h\n9) Incubate with 100 μl 2nd Antibody 1:5000 in blocking buffer at RT with shaking for 1 h.\n11) Add 50 μl luminescence substrate (mix according to manufacturer's protocol) and measure at plate reader directly after pipetting.\n(Enhanced luciferase protocol, 0.1 s measurement)"}, "[2]": {"target": "human sodium taurocholate co-transporting polypeptide (NTCP/SLC10A1) (human) (UniProt Q14973)", "test": "cell-based or functional assay"}, "[3]": {"target": "T1, human sodium taurocholate co-transporting polypeptide (NTCP/SLC10A1) (human, UniProt Q14973 1-349)", "T1 sequence": "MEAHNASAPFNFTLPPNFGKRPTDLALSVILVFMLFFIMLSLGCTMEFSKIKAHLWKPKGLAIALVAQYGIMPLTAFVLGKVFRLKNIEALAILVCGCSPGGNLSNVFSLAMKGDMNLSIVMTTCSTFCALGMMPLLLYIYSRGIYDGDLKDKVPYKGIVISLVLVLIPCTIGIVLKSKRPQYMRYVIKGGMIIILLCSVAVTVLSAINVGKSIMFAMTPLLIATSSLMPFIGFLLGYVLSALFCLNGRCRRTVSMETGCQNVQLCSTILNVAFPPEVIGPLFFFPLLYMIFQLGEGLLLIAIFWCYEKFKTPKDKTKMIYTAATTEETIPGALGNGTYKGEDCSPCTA", "test": "cell-based or functional assay"}, "[4]": {"settings": "experiments of FIGS. 7 and 9, Huh7-hNTCP cells pretreated 30 minutes, co-incubated with HDV overnight, in-cell ELISA five days after infection (n=3), read-out: IC 50"}, "[5]": {"settings": "HDV infection, Huh7-hNTCP cells, in-cell ELISA, FIGS. 3, 4 and 5 (genotype B sequence), read-out: IC50"}}, "note": "Like-named read-outs stand apart in the source and are kept apart here. Square brackets hold non-standard residues; d marks the D form. Ends that are not written are not given here. Peptide text beside a SMILES is read from it. * marks the point of attachment. Ursodeoxycholyl = C[C@H](CCC(=O)*)[C@H]1CC[C@H]2[C@@H]3[C@@H](O)C[C@@H]4C[C@H](O)CC[C@]4(C)[C@H]3CC[C@]12C; Myristoyl = CCCCCCCCCCCCCC(=O)*", "data": [{"molecule": "C[C@H](CCC(=O)O)[C@H]1CC[C@H]2[C@@H]3[C@H](O)C[C@@H]4C[C@H](O)CC[C@]4(C)[C@H]3C[C@H](O)[C@]12C", "note": "[CA, cholic acid]", "values": [{"measurement": "IC50", "setting": "[1]; Hepatitis delta virus", "result": 115000, "unit": "nM"}]}, {"molecule": "CCCCCCCCCCCCCC(=O)NCC(=O)N[C@H](C(=O)N[C@@H](CC(N)=O)C(=O)N[C@@H](CC(C)C)C(=O)N[C@@H](CO)C(=O)N[C@H](C(=O)N1CCC[C@H]1C(=O)N[C@@H](CC(N)=O)C(=O)N1CCC[C@H]1C(=O)N[C@@H](CC(C)C)C(=O)NCC(=O)N[C@@H](Cc1ccccc1)C(=O)N[C@@H](Cc1ccccc1)C(=O)N1CCC[C@H]1C(=O)N[C@@H](CC(=O)O)C(=O)N[C@@H](Cc1c[nH]cn1)C(=O)N[C@@H](CCC(N)=O)C(=O)N[C@@H](CC(C)C)C(=O)N[C@@H](CC(=O)O)C(=O)N1CCC[C@H]1C(=O)N[C@H](Cc1ccc(O)cc1)C(=O)N[C@@H](CCCCNC(=O)CC[C@@H](C)[C@H]1CC[C@H]2[C@@H]3[C@@H](O)C[C@@H]4C[C@H](O)CC[C@]4(C)[C@H]3CC[C@]12C)C(N)=O)C(C)C)[C@@H](C)O", "note": "[HBVpreS/2-21myr-UDCA] (Myristoyl-GTNLSVPNPLGFFPDHQLDP[dY]K(Ursodeoxycholyl)-NH2)", "values": [{"measurement": "IC50", "setting": "[1]; [4]", "result": 9.2, "unit": "nM"}]}, {"molecule": "CCCCCCCCCCCCCC(=O)NCC(=O)N[C@H](C(=O)N[C@@H](CC(N)=O)C(=O)N[C@@H](CC(C)C)C(=O)N[C@@H](CO)C(=O)N[C@H](C(=O)N1CCC[C@H]1C(=O)N[C@@H](CC(N)=O)C(=O)N1CCC[C@H]1C(=O)N[C@@H](CC(C)C)C(=O)NCC(=O)N[C@@H](Cc1ccccc1)C(=O)N[C@@H](Cc1ccccc1)C(=O)N1CCC[C@H]1C(=O)N[C@@H](CC(=O)O)C(=O)N[C@@H](Cc1c[nH]cn1)C(=O)N[C@@H](CCC(N)=O)C(=O)N[C@@H](CC(C)C)C(=O)N[C@@H](CC(=O)O)C(=O)N1CCC[C@H]1C(N)=O)C(C)C)[C@@H](C)O", "note": "[HBVpreS/2-21myr] (Myristoyl-GTNLSVPNPLGFFPDHQLDP-NH2; C-terminus assumed)", "values": [{"measurement": "IC50", "setting": "[1]; [5]", "result": 62.8, "unit": "nM"}]}, {"molecule": "C[C@H](CCC(=O)O)[C@H]1CC[C@H]2[C@@H]3[C@@H](O)C[C@@H]4C[C@H](O)CC[C@]4(C)[C@H]3CC[C@]12C", "note": "[UDCA, ursodeoxycholic acid]", "values": [{"measurement": "IC50", "setting": "[1]; [5]", "result": 79000, "unit": "nM"}, {"measurement": "IC50", "setting": "[1]; [4]", "result": 79000, "unit": "nM"}]}, {"molecule": "HBVpreS/2-21myr (consensus) (peptide)", "values": [{"measurement": "IC 50, inhibition of HDV infection of Huh7-hNTCP cells (in-cell ELISA, FIGS. 7 and 9)", "setting": "[2]", "result": 70.3, "unit": "nM"}]}, {"molecule": "HBVpreS/2-21myr-(UDCA)2 (genotype B) (peptide)", "values": [{"measurement": "IC50, inhibition of HDV infection of Huh7-hNTCP cells (HDAg in-cell ELISA)", "setting": "[2]", "result": 3.55, "unit": "nM"}, {"measurement": "IC 50, inhibition of HDV infection of Huh7-hNTCP cells (in-cell ELISA, FIGS. 7 and 9)", "setting": "[2]", "result": 12.7, "unit": "nM"}]}, {"molecule": "HBVpreS/2-21myr-CA (genotype B) (peptide)", "values": [{"measurement": "IC50, inhibition of HDV infection of Huh7-hNTCP cells (HDAg in-cell ELISA)", "setting": "[2]", "result": 7.27, "unit": "nM"}, {"measurement": "IC 50, inhibition of HDV infection of Huh7-hNTCP cells (in-cell ELISA, FIGS. 7 and 9)", "setting": "[2]", "result": 12.5, "unit": "nM"}]}, {"molecule": "HBVpreS/2-21myr-LCA (genotype B) (peptide)", "values": [{"measurement": "IC 50, inhibition of HDV infection of Huh7-hNTCP cells (in-cell ELISA, FIGS. 7 and 9)", "setting": "[2]", "result": 7.5, "unit": "nM"}]}, {"molecule": "HBVpreS/2-21myr-UDCA (genotype B) (peptide)", "values": [{"measurement": "IC50, inhibition of HDV infection of Huh7-hNTCP cells (HDAg in-cell ELISA)", "setting": "[2]", "result": 8.45, "unit": "nM"}, {"measurement": "IC 50, inhibition of HDV infection of Huh7-hNTCP cells (in-cell ELISA, FIGS. 7 and 9)", "setting": "[2]", "result": 9.2, "unit": "nM"}]}, {"molecule": "MyrB-UDCA (peptide)", "values": [{"measurement": "IC 50, inhibition of HDV infection of Huh7-hNTCP cells (in-cell ELISA, FIGS. 7 and 9)", "setting": "[2]", "result": 1.5, "unit": "nM"}]}, {"molecule": "Myristoyl-GTNLSVPNPLGFFPDHQLDP", "note": "[HBVpreS/2-21myr (Genotype B)]", "values": [{"measurement": "IC50, inhibition of HDV infection of Huh7-hNTCP cells (HDAg in-cell ELISA)", "setting": "[3]", "result": 62.8, "unit": "nM"}]}]}
